Data from patent US20080081783A1 (published 2008).
Read-outs that look alike come from different tables or passages of the source. Blank lines part the entries; values can stand above or below the binder they belong to. Bridge positions count the residues as written; N and C are the ends. Square brackets hold non-standard residues; d marks the D form. Ends that are not written are not given here. 1Nal = N[C@@H](Cc1cccc2ccccc12)C(=O)O; Sar = CNCC(=O)O

Tests used:
human EPO-R [1] = target: T1, human EPO-R (human, UniProt P19235 25-508); experiment: cell-based or functional assay
T1 sequence (looked up): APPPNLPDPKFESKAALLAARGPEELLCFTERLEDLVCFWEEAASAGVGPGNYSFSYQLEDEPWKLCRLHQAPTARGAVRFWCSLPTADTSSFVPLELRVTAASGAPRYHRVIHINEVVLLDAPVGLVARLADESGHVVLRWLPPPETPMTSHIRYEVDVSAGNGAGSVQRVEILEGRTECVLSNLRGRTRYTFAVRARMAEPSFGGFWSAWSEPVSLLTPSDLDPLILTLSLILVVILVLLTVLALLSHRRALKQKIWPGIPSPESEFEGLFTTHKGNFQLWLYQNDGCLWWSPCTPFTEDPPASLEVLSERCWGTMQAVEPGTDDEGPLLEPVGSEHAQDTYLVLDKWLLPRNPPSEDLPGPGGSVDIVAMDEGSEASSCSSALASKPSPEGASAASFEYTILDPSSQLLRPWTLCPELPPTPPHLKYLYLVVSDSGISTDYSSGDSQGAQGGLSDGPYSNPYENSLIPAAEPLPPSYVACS

[2] = target: T2, chimeric receptor comprising the extra-cellular portion of the human EPO receptor to the intra-cellular … (human, UniProt P19235 25-250; Q99062 651-836, limits assumed); experiment: cell-based or functional assay
T2 sequence (looked up): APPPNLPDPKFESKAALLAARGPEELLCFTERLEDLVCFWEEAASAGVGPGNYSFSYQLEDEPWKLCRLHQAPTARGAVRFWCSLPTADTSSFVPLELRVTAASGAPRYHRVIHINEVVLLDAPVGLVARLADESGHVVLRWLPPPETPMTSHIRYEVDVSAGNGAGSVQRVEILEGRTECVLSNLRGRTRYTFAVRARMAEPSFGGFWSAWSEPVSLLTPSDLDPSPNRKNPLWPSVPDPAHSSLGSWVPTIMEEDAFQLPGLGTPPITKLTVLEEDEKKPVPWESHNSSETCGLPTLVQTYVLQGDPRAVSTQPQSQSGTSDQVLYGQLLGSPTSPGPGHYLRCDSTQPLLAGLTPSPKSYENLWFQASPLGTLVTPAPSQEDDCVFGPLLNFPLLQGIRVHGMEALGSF

[3] = target: T3, Recombinant Human EPO R/Fc Chimera (human, UniProt P19235 25-250); experiment: radioligand competition; competitor 125I-EPO; EPO R/Fc chimera captured on protein-G Sepharose
T3 construct: extracellular domain; Bought from R&D Systems, catalog number 963-ER; also called recombinant EPOr extracellular domain fused to the Fc portion of human IgG1; recombinant erythropoietin receptor; not shown: Fc portion of human IgG1
T3 sequence (looked up): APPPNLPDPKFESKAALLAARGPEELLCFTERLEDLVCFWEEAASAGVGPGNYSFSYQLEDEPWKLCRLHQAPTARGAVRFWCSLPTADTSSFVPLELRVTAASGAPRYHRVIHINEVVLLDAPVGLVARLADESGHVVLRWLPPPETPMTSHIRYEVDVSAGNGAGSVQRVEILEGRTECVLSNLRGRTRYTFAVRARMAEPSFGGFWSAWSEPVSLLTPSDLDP

human EPO-R [4] = target: T1, human EPO-R; experiment: cell-based or functional assay; remark: listed apart in the source
[5] = target: T2, chimeric receptor comprising the …; experiment: cell-based or functional assay; remark: listed apart in the source
[6] = target: recombinant EPO-R (produced in Chinese Hamster Ovary cells as a fusion protein to a portion of the human … (human, UniProt P05187 490-506)); experiment: competitive binding; the column head says only 'IC50'; taken as the AlphaQuest bead proximity assay against the biotinylated tracer SEQ ID NO: 4, by paragraph 206

Proliferation EC50 (human EPO-R [1]): 165 pM
Reporter EC50 [2]: 195 pM
IC50 [3]: 111 pM
B1: Peptide I (SEQ ID NO: 2) (peptide)
peptide: Ac-XGLYACHMGPIT[1Nal]VCQPLR[Sar]K
modifications: disulfide 6-15; not fully specified (residues 1, 21); printed as (AcG)GLYACHMGPIT(1-nal)VCQPLR(MeG)K; also: homodimer joined by a branched tertiary amide linker on the epsilon-N of Lys21, PEG attached through a spacer, exact linker and PEG structure not readable
notes: The exact structure (linker, spacer, PEG size, carbamate or amide linkage) stands only in drawing CHEM-US-00099, which is not readable here

Proliferation EC50 (human EPO-R [4]): 72000 pM
Reporter EC50 [5]: 150 pM
B2: Peptide III (SEQ ID NO: 3) (peptide)
peptide: Ac-XGLYACHMGPIT[1Nal]VCQPLR[Sar]
modifications: disulfide 6-15; not fully specified (residue 1); printed as (AcG)GLYACHMGPIT(1-nal)VCQPLR(MeG); also: homodimer, C-termini joined to alpha- and epsilon-amino groups of a lysine linker, PEG attached through a spacer, linkage and PEG size not readable

IC50 [6]: 110 pM
B3: Peptide II (SEQ ID NO: 3) (peptide)
peptide: Ac-XGLYACHMGPIT[1Nal]VCQPLR[Sar]
modifications: disulfide 6-15 (inferred); not fully specified (residue 1); printed as (AcG)GLYACHMGPIT(1-nal)VCQPLR(MeG); also: homodimer, C-termini joined to alpha- and epsilon-amino groups of a lysine linker, PEG attached through a spacer, linkage and PEG size not readable
notes: What sets it apart from Peptide III (PEG linkage or size) stands only in drawing CHEM-US-00080
